Experimental findings from article PMC4297981 (Scientific Reports, 2015) are described below.

This data set deals with the molecule itself. Kind of data set: SDS-PAGE.

B1: integrin β1a-TMC variant L749C (transmembrane and cytoplasmic domains, V717-K798, cys-less background), reconstituted in POPC/POPG liposomes (domain or fragment, human, UniProt P05556-1 717-798, looked up)
chain: VVENPESPTGPDIIPIVAGVVAGIVLIGLALLCIWKLLMIIHDRREFAKFEKEKMNAKWDTGENPIYKSAVTTVVNPKYEGK
Regarding B1, the binding result was “binds”.
